# Assay results from US8273855 (JIANGSU NOVAVAC BIO TEC, dated 2012).
# T1: Caspr (native, mouse brain) (mouse, UniProt O54991 21-1385)
# T1 construct: also called mouse Caspr
# T1 sequence (looked up): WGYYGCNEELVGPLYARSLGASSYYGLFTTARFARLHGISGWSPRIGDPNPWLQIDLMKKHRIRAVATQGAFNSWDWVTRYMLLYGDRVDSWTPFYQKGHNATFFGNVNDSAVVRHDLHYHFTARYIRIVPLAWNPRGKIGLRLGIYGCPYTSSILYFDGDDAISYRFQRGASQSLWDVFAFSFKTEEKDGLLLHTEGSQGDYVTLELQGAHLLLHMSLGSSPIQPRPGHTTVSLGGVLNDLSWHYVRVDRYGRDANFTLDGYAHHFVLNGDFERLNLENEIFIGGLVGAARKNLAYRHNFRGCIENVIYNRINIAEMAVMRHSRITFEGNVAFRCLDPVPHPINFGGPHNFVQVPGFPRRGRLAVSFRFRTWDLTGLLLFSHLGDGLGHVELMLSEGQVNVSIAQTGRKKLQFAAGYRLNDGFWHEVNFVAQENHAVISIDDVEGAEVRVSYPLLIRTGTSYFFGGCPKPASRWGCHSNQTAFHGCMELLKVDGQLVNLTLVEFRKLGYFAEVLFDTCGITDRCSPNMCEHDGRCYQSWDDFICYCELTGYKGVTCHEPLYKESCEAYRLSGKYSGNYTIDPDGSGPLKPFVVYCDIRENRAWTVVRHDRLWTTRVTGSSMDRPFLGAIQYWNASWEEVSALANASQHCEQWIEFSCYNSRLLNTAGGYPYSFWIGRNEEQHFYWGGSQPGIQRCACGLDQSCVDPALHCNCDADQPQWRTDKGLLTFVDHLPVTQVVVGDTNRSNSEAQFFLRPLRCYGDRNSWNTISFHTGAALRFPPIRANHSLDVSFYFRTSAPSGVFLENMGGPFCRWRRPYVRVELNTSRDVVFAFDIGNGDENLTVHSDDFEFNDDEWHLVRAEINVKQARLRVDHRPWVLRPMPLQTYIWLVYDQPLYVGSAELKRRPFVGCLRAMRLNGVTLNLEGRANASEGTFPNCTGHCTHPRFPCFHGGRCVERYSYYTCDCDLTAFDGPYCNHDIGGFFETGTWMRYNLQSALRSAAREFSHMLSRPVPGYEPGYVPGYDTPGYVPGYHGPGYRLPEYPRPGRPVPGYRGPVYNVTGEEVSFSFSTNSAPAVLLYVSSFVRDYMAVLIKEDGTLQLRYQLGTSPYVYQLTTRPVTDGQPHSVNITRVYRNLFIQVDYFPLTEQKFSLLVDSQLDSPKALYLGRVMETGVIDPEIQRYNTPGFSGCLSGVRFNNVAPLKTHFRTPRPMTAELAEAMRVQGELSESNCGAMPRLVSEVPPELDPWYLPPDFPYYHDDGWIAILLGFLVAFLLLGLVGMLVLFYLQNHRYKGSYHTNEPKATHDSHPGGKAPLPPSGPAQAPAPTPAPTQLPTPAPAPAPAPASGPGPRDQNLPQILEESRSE
# T2: F3 on F3-transfected CHO cells (UniProt P12960 21-1001)
# T2 construct: whole, on cells; also called F3-CHO; F3-expressing CHO cells
# T2 sequence (looked up): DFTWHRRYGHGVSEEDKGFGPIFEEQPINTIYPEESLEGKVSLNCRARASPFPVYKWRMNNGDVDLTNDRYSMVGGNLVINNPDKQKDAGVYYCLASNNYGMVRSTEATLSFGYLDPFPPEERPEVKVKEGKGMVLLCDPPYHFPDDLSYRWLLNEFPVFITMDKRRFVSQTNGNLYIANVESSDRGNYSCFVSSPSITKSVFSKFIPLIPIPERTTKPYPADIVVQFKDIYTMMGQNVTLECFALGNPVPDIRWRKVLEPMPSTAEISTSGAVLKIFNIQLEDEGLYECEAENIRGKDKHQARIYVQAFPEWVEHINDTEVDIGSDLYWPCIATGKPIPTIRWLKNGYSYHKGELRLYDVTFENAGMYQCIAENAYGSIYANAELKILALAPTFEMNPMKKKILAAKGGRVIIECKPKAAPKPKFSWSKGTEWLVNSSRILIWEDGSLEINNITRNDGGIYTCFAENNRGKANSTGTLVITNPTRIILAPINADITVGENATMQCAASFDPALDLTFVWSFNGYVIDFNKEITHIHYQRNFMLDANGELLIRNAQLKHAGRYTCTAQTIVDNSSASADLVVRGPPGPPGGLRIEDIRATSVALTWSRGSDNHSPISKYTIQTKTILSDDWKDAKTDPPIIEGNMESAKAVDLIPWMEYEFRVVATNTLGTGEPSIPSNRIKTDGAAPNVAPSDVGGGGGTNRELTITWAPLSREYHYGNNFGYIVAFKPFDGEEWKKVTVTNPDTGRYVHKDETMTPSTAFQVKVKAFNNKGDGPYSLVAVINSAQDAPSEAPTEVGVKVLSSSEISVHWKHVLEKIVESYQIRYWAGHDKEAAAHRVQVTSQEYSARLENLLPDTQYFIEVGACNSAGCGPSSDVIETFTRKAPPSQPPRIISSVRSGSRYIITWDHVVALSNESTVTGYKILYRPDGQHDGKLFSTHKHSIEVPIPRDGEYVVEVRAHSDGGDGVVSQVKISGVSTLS
# B1: CHL1-Fc (Fc fusion, UniProt P70232 26-1083, looked up)
# chain: EIPLSVQQVPTIVKQSYVQVAFPFDEYFQIECEAKGNPEPIFSWTKDDKPFDLSDPRIIAANNSGTFKIPNEGHISHFQGKYRCFASNRLGTAVSEEIEFIVPGVPKFPKEKIEPIDVEEGDSIVLPCNPPKGLPPLHIYWMNIELEHIEQDERVYMSQRGDLYFANVEENDSRNDYCCFAAFPKLRTIVQKMPMKLTVNSSNSIKQRKPKLLLPPAQMGSLSAKTVLKGDTLLLECFAEGLPTPHIQWSKPGSELPEGRATIEVHEKTLKIENISYQDRGNYRCTANNLLGKASHDFHVTVEEPPRWKKKPQSAVYSTGSSGILLCEAEGEPQPTIKWRLNGLPIEKHPFPGDFMFPREISFTNLLPNHTGVYQCEASNIHGTILANANIDVIDVIPLIKTKNEENYATVVGYSAFLHCEYFASPKATVVWEVADETHPLEGDRYHTHENGTLEIYRTTEEDAGSYSCWVDNAMGKAVITANLDIRNATKLRVSPKNPRIPKSHVLELYCESQCDSHLKHSLKLSWSKDGEAFEMNGTEDGRIVIDGAYLTISNITAEDQGVYSCSAQTSLDSTSEKTQVTVLGVPDPPGNLHLSERQNRSVRLSWEAGDDHNSKISEYIVEFEGNREEPGKWEELTRVQGEETDVVLSLAPYVRYQFRVTAVNEVGRSHASLPSDHHETPPAAPDKNPQNIRVQASQPKEMIIKWEPLKSMEQNGPGLEYKVSWKPQGAPEEWEEEIVTNHTLRVMTPTVYAPYDVKVQAINQLGSSPDPQPVTLYSGEDYPSTAPVIQRVDVMNSTLVKVTWSSIPKETVHGLLRGYQINWWKTKSLLDGRTHPKEVNILRFSGQRNSGMVPSLDPFSEFHLTVLAYNSKGAGPESEPYIFQTPEGVPEQPSFLKVIKVDKDTATLSWGLPKKLNGNLTGYLLQYQIINDTYELGELNEINVTTPSKSSWHLSNLNSTTKYKFYLRACTSRGCGKPISEEGATLGEGSKGIRKITEGVNVTQKIHPVEVLVPGAEHIVHLMTKNWGDNDSIFQDVIETRGREYAGLYDDISTQGW
# notes: Control substrate; also called CHL-Fc; not shown: human IgG Fc
# B2: GST-Nogo-N (other, human, UniProt Q9NQC3 186-370, looked up)
# chain: DETLFALPAASEPVIRSSAENMDLKEQPGNTISAGQEDFPSVLLETAASLPSLSPLSAASFKEHEYLGNLSTVLPTEGTLQENVSEASKEVSEKAKTLLIDRDLTEFSELEYSEMGSSFSVSPKAESAVIVANPREEIIVKNKDEEEKLVSNNILHNQQELPTALTKLVKEDEVVSSEKAKDSFN
# notes: domain: cytoplasmic N-terminal domain of Nogo-A (Nogo-N); also called Nogo-N-GST; Nogo-N-terminal-GST; not shown: glutathione S-transferase (GST) encoded by vector pGEX-KG
# Tests used:
# Notch2 on OLN-93 cells = target: T3, Notch2 on OLN-93 cells (rat, UniProt Q9QW30 26-2471); assay: OLN-93 cell adhesion to control substrate
# T3 construct: whole, on cells; also called OLN cells
# Protocol: (§1) This was carried out as previously described (Xiao et al, 1996). Briefly, 35 mm tissue culture petri dishes (Becton Dickinson) were coated with methanol solubilized nitrocellulose (Lagenaur and Lemon, 1987) and air-dried under a sterile hood. […] Subsequently, the dishes were washed three times with calcium- and magnesium-free Hank's balanced salt solution (CMF-HBSS) and blocked overnight with 2% heat-inactivated fatty acid-free BSA (Sigma) in CMF-HBSS (this blocking step is skipped in the repulsion test). […] After 0.5 hour (in the adhesion test) or 12 hours (in the repulsion test), the dishes were gently washed three times with CMF-HBSS and the cells were fixed with 2.5% glutaldehyde in CMF-HBSS. […] Cells adhering to the various spots were photographed and counted. The results were analyzed by Student's t test with p<0.05 and p<0.01 being considered significant or highly significant difference, respectively.
# Notch1 on OLN-93 cells = target: T4, Notch1 on OLN-93 cells (rat, UniProt Q07008 19-2531); assay: OLN-93 cell adhesion to control substrate
# T4 construct: whole, on cells; OLN-93 cells carry both Notch1 and Notch2; also called OLN cells
# T4 sequence (Q07008 19-2531): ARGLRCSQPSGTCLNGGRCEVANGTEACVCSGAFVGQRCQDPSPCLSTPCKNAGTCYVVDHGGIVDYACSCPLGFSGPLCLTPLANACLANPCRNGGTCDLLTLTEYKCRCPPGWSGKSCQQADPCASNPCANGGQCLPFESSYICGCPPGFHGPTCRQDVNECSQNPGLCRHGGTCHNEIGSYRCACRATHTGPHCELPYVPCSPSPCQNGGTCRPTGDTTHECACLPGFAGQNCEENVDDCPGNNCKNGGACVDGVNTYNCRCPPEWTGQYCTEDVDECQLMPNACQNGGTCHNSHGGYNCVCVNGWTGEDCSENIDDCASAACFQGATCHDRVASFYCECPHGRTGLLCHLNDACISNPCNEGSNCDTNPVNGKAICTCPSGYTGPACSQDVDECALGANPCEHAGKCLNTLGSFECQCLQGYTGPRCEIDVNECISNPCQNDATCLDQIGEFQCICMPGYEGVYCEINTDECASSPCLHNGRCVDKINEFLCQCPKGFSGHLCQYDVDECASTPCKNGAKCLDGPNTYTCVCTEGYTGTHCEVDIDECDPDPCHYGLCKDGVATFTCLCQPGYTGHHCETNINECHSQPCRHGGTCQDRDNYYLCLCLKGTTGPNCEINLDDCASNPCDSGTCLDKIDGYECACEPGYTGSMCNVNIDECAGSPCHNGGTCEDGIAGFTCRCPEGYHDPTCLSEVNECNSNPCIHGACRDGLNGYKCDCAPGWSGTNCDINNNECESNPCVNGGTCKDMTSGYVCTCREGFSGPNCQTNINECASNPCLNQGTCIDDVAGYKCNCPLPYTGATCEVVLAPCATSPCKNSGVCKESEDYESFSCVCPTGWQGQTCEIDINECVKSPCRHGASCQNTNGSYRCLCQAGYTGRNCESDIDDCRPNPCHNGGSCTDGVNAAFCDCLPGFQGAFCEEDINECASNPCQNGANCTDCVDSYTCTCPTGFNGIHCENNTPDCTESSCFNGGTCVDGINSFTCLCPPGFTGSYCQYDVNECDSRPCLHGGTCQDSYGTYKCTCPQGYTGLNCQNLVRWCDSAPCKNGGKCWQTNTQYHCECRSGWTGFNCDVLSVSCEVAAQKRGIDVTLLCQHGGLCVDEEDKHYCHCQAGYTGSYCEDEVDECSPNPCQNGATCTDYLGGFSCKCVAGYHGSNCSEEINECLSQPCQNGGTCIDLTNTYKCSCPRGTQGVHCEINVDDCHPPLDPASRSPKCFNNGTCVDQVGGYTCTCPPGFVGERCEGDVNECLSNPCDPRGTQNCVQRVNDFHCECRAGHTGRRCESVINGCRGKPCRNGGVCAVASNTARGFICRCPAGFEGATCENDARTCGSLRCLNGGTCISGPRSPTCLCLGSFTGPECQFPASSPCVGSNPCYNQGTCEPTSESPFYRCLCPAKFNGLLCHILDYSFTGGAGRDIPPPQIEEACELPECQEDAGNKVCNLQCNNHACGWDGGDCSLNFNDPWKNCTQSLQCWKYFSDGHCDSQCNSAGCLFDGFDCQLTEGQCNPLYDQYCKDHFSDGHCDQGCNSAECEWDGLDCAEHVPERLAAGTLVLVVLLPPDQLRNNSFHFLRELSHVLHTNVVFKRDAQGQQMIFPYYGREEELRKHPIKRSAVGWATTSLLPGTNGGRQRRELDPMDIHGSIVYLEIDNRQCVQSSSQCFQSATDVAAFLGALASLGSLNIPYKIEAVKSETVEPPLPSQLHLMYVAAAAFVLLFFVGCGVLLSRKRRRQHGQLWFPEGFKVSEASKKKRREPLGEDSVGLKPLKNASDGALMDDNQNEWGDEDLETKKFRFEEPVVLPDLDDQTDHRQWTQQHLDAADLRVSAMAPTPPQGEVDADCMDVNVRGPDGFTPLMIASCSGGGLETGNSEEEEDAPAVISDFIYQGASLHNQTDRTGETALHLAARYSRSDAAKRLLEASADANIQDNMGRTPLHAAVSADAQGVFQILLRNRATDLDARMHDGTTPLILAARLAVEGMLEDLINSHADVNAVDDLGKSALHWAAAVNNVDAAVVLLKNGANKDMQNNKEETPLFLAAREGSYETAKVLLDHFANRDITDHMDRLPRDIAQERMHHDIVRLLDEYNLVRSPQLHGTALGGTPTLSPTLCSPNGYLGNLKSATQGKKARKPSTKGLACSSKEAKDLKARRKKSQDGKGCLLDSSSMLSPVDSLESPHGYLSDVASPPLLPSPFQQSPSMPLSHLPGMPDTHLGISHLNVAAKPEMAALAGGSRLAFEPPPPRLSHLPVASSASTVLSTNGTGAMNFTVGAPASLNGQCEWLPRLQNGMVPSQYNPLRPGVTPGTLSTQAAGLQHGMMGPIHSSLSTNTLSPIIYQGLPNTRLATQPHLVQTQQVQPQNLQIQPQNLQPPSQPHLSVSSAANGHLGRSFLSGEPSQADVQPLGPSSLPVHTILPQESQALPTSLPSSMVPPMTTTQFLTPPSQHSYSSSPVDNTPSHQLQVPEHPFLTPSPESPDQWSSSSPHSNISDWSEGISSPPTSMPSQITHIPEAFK
# Protocol: as §1
# [1] = target: T1, Caspr (native, mouse brain); assay: GST pull-down from adult mouse brain membrane extracts
# Text: (§2) During myelination, the proper segregation of K^+ channels to juxtaparanodes requires an intact paranodal axoglial junction (Vabnick and Shrager, 1998).
# [2] = target: T5, Kv1.1 (native, mouse brain extracts) (mouse, UniProt P16388 1-495); assay: as above
# T5 construct: also called Kv1.1 K+ channel alpha-subunit
# T5 sequence (P16388 whole entry): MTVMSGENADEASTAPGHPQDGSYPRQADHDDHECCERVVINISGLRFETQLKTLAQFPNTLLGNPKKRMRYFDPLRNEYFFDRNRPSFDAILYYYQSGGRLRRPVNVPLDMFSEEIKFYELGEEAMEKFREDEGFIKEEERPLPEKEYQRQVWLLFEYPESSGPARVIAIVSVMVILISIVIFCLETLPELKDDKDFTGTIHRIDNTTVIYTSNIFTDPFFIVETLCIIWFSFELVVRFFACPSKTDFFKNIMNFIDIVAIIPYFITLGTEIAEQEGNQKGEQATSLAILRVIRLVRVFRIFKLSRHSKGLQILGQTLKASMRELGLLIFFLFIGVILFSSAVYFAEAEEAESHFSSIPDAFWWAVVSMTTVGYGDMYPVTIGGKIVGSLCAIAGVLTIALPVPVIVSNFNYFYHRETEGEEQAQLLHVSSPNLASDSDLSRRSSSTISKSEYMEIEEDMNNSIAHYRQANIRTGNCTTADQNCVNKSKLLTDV
# Text: as §2
# [3] = target: T2, F3 on F3-transfected CHO cells; assay: cell adhesion assay, F3-CHO cells on coated substrate
Binder,binding result (Notch2 on OLN-93 cells),binding result (Notch1 on OLN-93 cells),binding result [1],binding result [2],binding result [3]
B1,no binding (tested: 2.5 µl of 12 µM CHL1-Fc spotted),no binding (tested: 2.5 µl of 12 µM CHL1-Fc spotted),,,
B2,,,no binding (tested: 20 µg bead-bound protein),no binding (tested: 20 µg bead-bound protein),no binding
